Measured values: patent publication US20110064733A1

What was measured:
[1] = molecular target: Muc1 as expressed by DS6 negative & CM1 positive cell lines (KLE, OVCAR3, SKOV3), without the CA6 glycotope (human) (UniProt P15941); test: flow cytometry on OVCAR3 cells (DS6 negative)
[2] = molecular target: Muc1 as expressed by DS6 negative & CM1 positive cell lines (KLE, OVCAR3, SKOV3), without the CA6 glycotope (human) (UniProt P15941); test: flow cytometry on KLE cells (DS6 negative)
[3] = molecular target: Muc1 as expressed by DS6 negative & CM1 positive cell lines (KLE, OVCAR3, SKOV3), without the CA6 glycotope (human) (UniProt P15941); test: flow cytometry on SKOV3 cells (DS6 negative)
[4] = molecular target: Muc1 as expressed by DS6 negative & CM1 positive cell lines (KLE, OVCAR3, SKOV3), without the CA6 glycotope (human) (UniProt P15941); test: flow cytometry on OVCAR3 cells
[5] = molecular target: Muc1 as expressed by DS6 negative & CM1 positive cell lines (KLE, OVCAR3, SKOV3), without the CA6 glycotope (human) (UniProt P15941); test: flow cytometry on SKOV3 cells
[6] = molecular target: Muc1 as expressed by DS6 negative & CM1 positive cell lines (KLE, OVCAR3, SKOV3), without the CA6 glycotope (human) (UniProt P15941); test: flow cytometry on KLE cells

| Substance | MMF (maximum mean relative fluorescence) (relative fluorescence) [1] | MMF (maximum mean relative fluorescence) (relative fluorescence) [2] | MMF (maximum mean relative fluorescence) (relative fluorescence) [3] | MMF (maximum mean relative fluorescence) (relative fluorescence) [4] | MMF (maximum mean relative fluorescence) (relative fluorescence) [5] | MMF (maximum mean relative fluorescence) (relative fluorescence) [6] |
| --- | --- | --- | --- | --- | --- | --- |
| murine anti-CA6 monoclonal antibody DS6 | 21.2 | 27.5 | 17.5 | – | – | – |
| CM1 antibody (Muc1 VNTR antibody) | – | – | – | 192 | 49.4 | 562 |
